US12551573B2, “Compositions and methods for the targeting of PCSK9” (Scribe Therapeutics Inc., priority 2022, dated 2026)
Changes are numbered by the printed parent chain. Where two headings read alike, the source gives them in different places.

Key:
[1] = system: HBEGF locus; assay type: cell-based, human; settings: for Log2 (fold change): high-throughput screen of dXR repression of the HBEGF gene
[2] = system: B2M locus; assay: B2M repression (HLA-negative cells by flow cytometry) in HEK293T cells transfected with LTRP plasmids; assay type: cell-based, human; settings: for B2M repression by LTRP5 constructs with enhanced repressor domains: LTRP5 without ADD, scaffold 316 spacer 7.165, days 6/7 to 26/27, vs LTRP5-ZIM3; for Mean % HLA-negative cells: HEK293T cells, B2M-targeting spacer 7.37
Method: Each construct was tested in triplicate.
Each construct was tested in triplicate. […] Cells were harvested for repression analysis at day 5, day 12, day 21, and day 51 post-transfection.
Each construct was tested in triplicate. […] Cells were harvested for repression analysis at day 8, day 13, day 20, and day 27 post-transfection. […] In addition, cells were also harvested on day 5 post-transfection for gDNA extraction for bisulfite sequencing to assess off-target methylation at the non-targeted VEGFA locus, which was performed using similar methods as described in Example 13.
HEK293T cells were transfected as described in Example 14, except that the cells were transfected with 50 ng each of a plasmid encoding the LTRP construct and a plasmid encoding the gRNA. […] 72 of the 95 top repressor domains were assessed together in one experiment where B2M expression was measured at 7, 14, 19, and 26 days after transfection, and the data shown in Tables 57-60.

[3] = system: HBEGF gene; assay type: cell-based, human; settings: HEK293T; HBEGF-targeting spacer; toxin 0-2000 ng/mL
[4] = system: B2M locus; assay: B2M reactivation by 5-azadC (DNMT1 inhibitor) in transfected HEK293T cells; settings: B2M-targeting gRNA, 5-azadC 0-20 uM
Method: These transfected HEK293T cells were subsequently re-seeded at ˜30,000 cells well of a 96-well plate and were treated with 5-aza-2′-deoxycytidine (5-azadC), a DNMT1 inhibitor, at concentrations ranging from 0 μM to 20 μM. […] Treatments for each dose of 5-azadC for each experimental condition were performed in triplicates.

[5] = abundance of each domain in the library before and after diphtheria toxin selection, HEK293T cells
[6] = change in abundance of each domain in the library before and after diphtheria toxin selection
[7] = HEK293T, 50 days post-transfection, spacer 7.37 (B2M)
[8] = HEK293T, 73 days post-transfection, spacer 7.37 (B2M)

B1: DOMAIN_16694 (protein, listed as Callorhinus ursinus)
chain: SYGSFSFEDVTVGFTQEEWQHLGPAQRILYRDVMLENYSHLVSVGCCIPKPEVILKLEQGEQPWILEEESPSQSYPGLPTD
- Log2 (fold change) [1, 5]: 2.0979

B2: DOMAIN_16556 (protein, listed as Rhinopithecus roxellana)
chain: AQESVTFEDVAVNFTNREWQSLTYAQRHLYKHVMLENYRNMVSLGFPFPKPPLISHLERGVEPCVQDPQDKESLSCSYPVS
- Log2 (fold change) [1, 5]: 2.4217

B3: DOMAIN_26749: repressor domain derived from the king cobra, Ophiophagus hannah; SEQ ID NO: 135 (protein)
chain: STPVTFEDVVVYFTAAEWVHLTNWQRDFYQAVMMETYELVASVAGDGVPMAEDEEGGVERPVWQYIPRGKRRRKTPQPRAD
modifications: Ophiophagus hannah
- B2M repression by LTRP5 constructs with enhanced repressor domains ([2]; HEK293T): most effective repressor domains
- log 2 (fold change) of abundance before and after selection ([1]; HEK293T, dCasX491 fusion, scaffold 174 spacer 34.28, 2 ng/ml diphtheria toxin for 48 hours): highest log 2 (fold change)
- Log2 (fold change) [1, 6]: 5.4323

B4: CasX 491: catalytically-active CasX variant 491 (protein)
chain: QEIKRINKIRRRLVKDSNTKKAGKTGPMKTLLVRVMTPDLRERLENLRKKPENIPQPISNTSRANLNKLLTDYTEMKKAILHVYWEEFQKDPVGLMSRVAQPASKKIDQNKLKPEMDEKGNLTTAGFACSQCGQPLFVYKLEQVSEKGKAYTNYFGRCNVAEHEKLILLAQLKPEKDSDEAVTYSLGKFGQRALDFYSIHVTKESTHPVKPLAQIAGNRYASGPVGKALSDACMGTIASFLSKYQDIIIEHQKVVKGNQKRLESLRELAGKENLEYPSVTLPPQPHTKEGVDAYNEVIARVRMWVNLNLWQKLKLSRDDAKPLLRLKGFPSFPLVERQANEVDWWDMVCNVKKLINEKKEDGKVFWQNLAGYKRQEALRPYLSSEEDRKKGKKFARYQLGDLLLHLEKKHGEDWGKVYDEAWERIDKKVEGLSKHIKLEEERRSEDAQSKAALTDWLRAKASFVIEGLKEADKDEFCRCELKLQKWYGDLRGKPFAIEAENSILDISGFSKQYNCAFIWQKDGVKKLNLYLIINYFKGGKLRFKKIKPEAFEANRFYTVINKKSGEIVPMEVNFNFDDPNLIILPLAFGKRQGREFIWNDLLSLETGSLKLANGRVIEKTLYNRRTRQDEPALFVALTFERREVLDSSNIKPMNLIGVDRGENIPAVIALTDPEGCPLSRFKDSLGNPTHILRIGESYKEKQRTIQAKKEVEQRRAGGYSRKYASKAKNLADDMVRNTARDLLYYAVTQDAMLIFENLSRGFGRQGKRTFMAERQYTRMEDWLTAKLAYEGLSKTYLSKTLAQYTSKTCSNCGFTITSADYDRVLEKLKKTATGWMTTINGKELKVEGQITYYNRYKRQNVVKDLSVELDRLSEESVNNDISSWTKGRSGEALSLLKKRFSHRPVQEKFVCLNCGFETHADEQAALNIARSWLFLRSQEYKKYQTNKTTGNTDKRAFVETWQSFYRKKLKEVWKPAV
modifications: listed as DNA
- Mean % HLA-negative cells ([2]; 6 days post-transfection): 76.167%
- Mean % HLA-negative cells ([2]; 13 days post-transfection): 81.167%
- Mean % HLA-negative cells ([2]; 20 days post-transfection): 83.633%
- Mean % HLA-negative cells ([2]; 27 days post-transfection): 80.933%
- % HLA-negative cells (mean) ([2]; HEK293T, 50 days post-transfection, spacer 0.0 (non-targeting)): 0.29%
- % HLA-negative cells (mean) [2, 7]: 76.57%
- % HLA-negative cells (mean) ([2]; HEK293T, 73 days post-transfection, spacer 0.0 (non-targeting)): 0.71%
- % HLA-negative cells (mean) [2, 8]: 73.30%
- B2M repression (HLA-negative cells) ([2]; HEK293T, LTRP #1, #4, #5 plasmids and controls, scaffold 174 spacer 7.37, time course to 73 days): durable silencing of the B2M expression
- repression of B2M expression by day 58 ([2]; HEK293T, plasmid with B2M-targeting gRNA scaffold 174 spacer 7.37): ~75%
- protection from diphtheria toxin [3]: protects at all doses
- reactivation of the B2M gene upon 5-azadC treatment [4]: did not exhibit reactivation of the B2M gene

B5: dCasX491: catalytically-dead CasX variant, SEQ ID NO: 4 (protein)
chain: B4 chain with D659A, E756A, D921A
- % HLA-negative cells (mean) [2, 7]: 0.49%
- % HLA-negative cells (mean) [2, 8]: 0.83%

B6: DOMAIN_16566 (protein, listed as Odocoileus virginianus)
chain: HQESLTFKDVAVNFTQEEWHHVDAAQRRLYKDVMLENYSHLVSLGYQVSKPEVIFKLEQGEEPWIAEGEIQRPVCPDWKTR
- Log2 (fold change) [1, 5]: 3.3903

B7: DOMAIN_29304: one of the nine most effective repressor domains (protein, listed as Peromyscus maniculatus)
chain: VTYNDVHVDITQEEWALMDPSQRNLYKDVMVETYMNLTAIGYNWENLEVEEPCQNPLKHGRHERPHTGEKPYEYNQCGKAFAQP
- B2M repression by LTRP5 constructs with enhanced repressor domains ([2]; HEK293T): most effective repressor domains
- Log2 (fold change) [1, 6]: 4.0496

B8: DOMAIN_16811 (protein, listed as Balaenoptera acutorostrata)
chain: PQASVSFKDVTVEFTQEEWWQMDSAQRTLYRDVMLENYSHLVSVGYCFTKPELIFMLEQGEDPWLLEKEFVNRSSPEESQP
- Log2 (fold change) [1, 5]: 3.5141

B9: DOMAIN_16611 (protein, listed as Papio anubis)
chain: MAFEDVAVYFSQEEWGLLDTAQRALYRHVMLENFTLVTSLGLSTSRPYVVIQLERGEEPWVPSGKDMTLARNTYRRLNAGS
- Log2 (fold change) [1, 5]: 3.4786

B10: DOMAIN_16738 (protein)
chain: B9 chain with A21T, Y48H, K65T, M67T, A70S, N72T, L77R, A79P
modifications: Pan troglodytes
- Log2 (fold change) [1, 5]: 3.5957
